{"source": "paper PMC10275583", "about": "“A symmetry mismatch unraveled: How phage HK97 scaffold flexibly accommodates a 12-fold pore at a 5-fold viral capsid vertex” (Science Advances, 2023)", "proteins": {"B1": {"name": "bacteriophage HK97 portal protein (natural protein, UniProt P49859 1-424, looked up)", "chain": "MEEPKYTIDLRTNNGWWARLKSWFVGGRLVTPNQGSQTGPVSAHGYLGDSSINDERILQISTVWRCVSLISTLTACLPLDVFETDQNDNRKKVDLSNPLARLLRYSPNQYMTAQEFREAMTMQLCFYGNAYALVDRNSAGDVISLLPLQSANMDVKLVGKKVVYRYQRDSEYADFSQKEIFHLKGFGFTGLVGLSPIAFACKSAGVAVAMEDQQRDFFANGAKSPQILSTGEKVLTEQQRSQVEENFKEIAGGPVKKRLWILEAGFSTSAIGVTPQDAEMMASRKFQVSELARFFGVPPHLVGDVEKSTSWGSGIEQQNLGFLQYTLQPYISRWENSIQRWLIPSKDVGRLHAEHNLDGLLRGDSASRAAFMKAMGESGLRTINEMRRTDNMPPLPGGDVAMRQAQYVPITDLGTNKEPRNNGA", "notes": "Portal protein of bacteriophage HK97, wild-type gene 3; 50 N-terminal residues are not visible in the density map and are missing from the model; Dodecamer at one vertex of Prohead I; also called gene 3 product; dodecameric portal complex; source: E. coli BL21 (DE3), plasmid pVPB expressing HK97 genes 3 and 5; purified within Prohead I particles (PEG precipitation, ultracentrifugation, glycerol …)"}}, "target": "the molecule itself", "test": "cryo-EM structure; HK97 Prohead I particles with portal, purified from E. coli co-expressing genes 3 and 5; buffer 100 mM KCl, 20 mM potassium phosphate pH 7.5; icosahedral map 3.6 A, focused reconstructions of penton vertex (C5, 3.0 A) and portal vertex (no symmetry 3.6 A, C12 3.2 A)", "data": [{"protein": "B1", "values": [{"measurement": "stoichiometry N", "result": 12}]}]}
